# According to patent US7893023B2, “Prodrugs activated by plasmin and their use in cancer chemotherapy” (priority 2000, dated 2011):
# Where two headings read alike, the source gives them in different places. Square brackets hold non-standard residues; d marks the D form. Peptide text beside a SMILES is read from it. * marks the point of attachment. ξ: configuration not given here. Doxorubicin(3'-N) = COc1cccc2c1C(=O)c1c(O)c3c(c(O)c1C2=O)C[C@@](O)(C(=O)CO)C[C@@H]3O[C@H]1C[C@H](N*)[C@H](O)[C@H](C)O1; X1 = COc1cccc2c1C(=O)c1c(O)c3c(c(O)c1C2=O)C[C@@](O)(C(C)=O)CC3OC1C[C@H](N*)[C@H](C)[C@H](C)O1; AMC = Cc1cc(=O)oc2cc(N*)ccc12; ξL = CC(C)CC(N)C(=O)O; ξK = NCCCCC(N)C(=O)O; ξA = CC(N)C(=O)O
# Assays:
# B16-B16 melanoma cells = test: Uptake by B16-B16 cells; type: cell-based, murine
# Procedure: This experiment was conducted to evaluate whether the prodrugs were able to enter cultured cells in their non-hydrolyzed forms. In addition, it was desired to estimate the capacity of the prodrugs to induce detectable levels of products of their enzymatic hydrolysis (DNR and its amino acid derivatives) inside B16-B16 cells. N-Leu-Leu-DNR was chosen as a reference drug since it is the product that is directly liberated by plasmin from Compound II, DNR.
# At determined time points (1, 3, 5 and 24 hours), the cells were washed, harvested and lysed by ultrasonication. The concentration of the drugs and metabolites in the cell lysates were determined after extraction and HPLC analysis (See General Methods, Section J.). The amounts of anthracycline derivatives found per mg of protein were then compared.
# [1] = test system: medium conditioned by cultured B16-B16 cells; test: Hydrolysis in medium conditioned by B16-B16 cells; type: in vitro ADME, murine; conditions: 17.24 μM, medium 20 times concentrated, 2 hours, 37° C.
# Procedure: Compounds I, DNR and II, DNR (17.24 μM) were incubated in a medium freshly conditioned by the cultured B16-B16 cells (20 times concentrated) for 2 hours at 37° C. After that time, triplicate aliquots were removed and the drugs and metabolites extracted prior to HPLC analysis (See General Methods, Section J.).
# human plasmin = molecular target: T1, human plasmin (Homo sapiens, UniProt P00747); test: Hydrolysis by human plasmin; type: biochemical; conditions: for rate of in vitro hydrolysis by human plasmin: 0.17 mM, 0.1 units human plasmin, 25° C., 50 mM pH 8.0 TES buffer
# T1 construct: purchased Sigma
# T1 sequence (P00747 581-810 limits assumed): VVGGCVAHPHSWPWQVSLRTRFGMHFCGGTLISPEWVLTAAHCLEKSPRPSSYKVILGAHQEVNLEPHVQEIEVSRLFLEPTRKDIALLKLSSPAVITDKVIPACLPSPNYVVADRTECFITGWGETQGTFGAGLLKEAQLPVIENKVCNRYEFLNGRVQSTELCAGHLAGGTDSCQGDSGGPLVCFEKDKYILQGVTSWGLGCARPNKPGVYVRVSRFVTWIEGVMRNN
# T1 sequence (P00747 97-580 partner limits assumed): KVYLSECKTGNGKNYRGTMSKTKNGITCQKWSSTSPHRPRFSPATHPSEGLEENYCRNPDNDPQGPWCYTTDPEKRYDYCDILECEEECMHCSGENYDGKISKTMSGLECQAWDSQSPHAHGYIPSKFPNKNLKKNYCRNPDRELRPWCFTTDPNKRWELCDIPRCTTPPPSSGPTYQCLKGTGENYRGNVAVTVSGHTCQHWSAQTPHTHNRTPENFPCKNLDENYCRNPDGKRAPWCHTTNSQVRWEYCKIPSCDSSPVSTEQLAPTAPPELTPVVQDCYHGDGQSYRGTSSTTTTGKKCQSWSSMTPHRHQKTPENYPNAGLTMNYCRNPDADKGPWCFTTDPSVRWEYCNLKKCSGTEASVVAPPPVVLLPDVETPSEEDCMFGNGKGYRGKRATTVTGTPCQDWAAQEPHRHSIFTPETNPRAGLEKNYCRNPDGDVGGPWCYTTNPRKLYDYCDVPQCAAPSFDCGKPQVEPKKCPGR
# Procedure: In an eppendorf tube, 50 μl of the substrate at a concentration of 50 μM in DMF were mixed with 900 μl of TES buffer and 50 μl of an enzyme-containing solution. The mixture was incubated for 1 hour at 25° C. Fluorescence was determined (λexc=350 nm, λem=496 nm; fluorometer standardized with a 10 nM solution of 7-amido-4-methylcoumarin in PBS and the whole mixture excluding the enzyme). A dosage curve was done in parallel with known plasmin concentrations (at least five ½ dilutions). Plasmin activity was determined and expressed in IU/ml; μmole substrate transformed/min×ml.
# Compounds I, DNR and II, DNR (0.17 mM), as well as D-Ala-Leu-Lys-7-amido-4-methylcoumarin (0.17 mM) were incubated at 25° C. in the presence of 0.1 units of human plasmin in a 50 mM, pH 8.0 TES buffer. For Compounds I, DNR and II, DNR, HPLC samples were prepared and analyzed by HPLC (See General Methods, Section J). In case of D-Ala-Leu-Lys-7-amido-4-methylcoumarin, after 1 hour of incubation, the fluorescence of the resulting solution was determined at λexc=350 nm, λem=496 nm (See General Methods, Section N.).
# After 15, 45 and 60 min of incubation, triplicate aliquots were removed and the drugs and metabolites extracted prior to HPLC analysis (See General Methods, Section J.).
# [2] = Acute toxicity in OF-1 mice, i.p.; type: in vivo; conditions: male, mouse, in vivo, ip; OF-1 mice, five i.p. injections days 0-4, calculated on day 28
# Procedure: (§1) The percentage of surviving mice and the mean body weight of each dose group was plotted as a function of time. Cumulative mortality on day 14 and day 28 was also plotted as a function of the dose level for the purpose of IC50 determination. IC50 values were determined from sigmoidal regressions performed with the GraphPad Prism 3.00 software.
# (§2) Male OF-1 mice (5 weeks old upon delivery), were kept for one week under laboratory conditions before the experiment. […] The animals were divided in six groups (5 mice per group) for toxicity studies and marked individually.
# (§3) Mortality and clinical signs were recorded up to 4 hours post-treatment on dosing days, and daily thereafter. Individual body weights were recorded daily until day 14 and at least twice a week thereafter. The percentage of surviving mice and the mean body weight of each dose group were plotted as a function of time. Cumulative mortality on day 14 and day 28 was also plotted as a function of the dose level for the purpose of LD50 determination. LD50 values were determined by regression analysis.
# OF-1 mice = test: Acute toxicity in OF-1 mice, i.p.; type: in vivo
# Procedure: as §1, §2, §3
# [3] = test system: LS174T colon tumor xenografts; test: Chemotherapeutic activity in the LS174T human colon tumor xenograft model; type: in vivo, mice
# Description: Animals were kept under pathogen-free conditions with food and water supplied ad libitum, and kept for about one week before implantation of the tumors. Fragments (˜2 mm) of tumors grown in nude mice were implanted subcutaneously in both flanks of the mice. Tumors were generally allowed to grow to attain a diameter of 5-6 mm each (approximately two weeks).
# The mice weighed 20.0-25.0 g at the beginning of the study. They were selected and assigned to groups in order to have equally distributed tumor volumes in the different groups. In each group, mice were labeled individually. Treatments were assigned randomly to those groups.
# All dosing solutions were prepared the day of injection by dissolution in water ( 1/10 of the expected final volume) and further dilution with 0.9% (w/v) NaCl. The concentration of these solutions was checked (A475 nm determination) after sterilization by filtration (0.22 μm) and adjusted to the final required value using sterile 0.9% (w/v) NaCl).
# Treatments were administered by the i.p. route. The mice received a constant volume (10 μl/g) of either saline (control group) or drug. Mortality and clinical signs were recorded up to 4 hours post-treatment on dosing days, and daily thereafter. Their behavior was equally noted. Individual body weights were generally recorded daily until day 14 and at least twice a week thereafter.
# Tumor growth was monitored by two-dimensional measurements using calipers and a precision of 0.5 mm. Tumor volumes were calculated according to the following formula: Vt=[length×(width)^2]/2
# Median relative tumor volumes (RTV) were calculated as tumor volumes determined at individual days divided by tumor volumes on day 0. For treated groups, growth inhibition was estimated as the percentage ratio of median RTV of treated (T) mice versus controls (C) on each day of tumor treatment. T/C(%)=[Median RTV(treated group)/Median RTV(control group)]×100
# The minimal T/C value (%) for each treatment was used as a parameter for maximum efficacy. Duration of growth inhibition was assessed by considering growth delays (T-C) for one (200%) and two (400%) doublings of the median RTV).
# To determine the statistical significance of any difference in median RTV between two groups, the Mann-Whitney test was used. The test was conducted at a p level of 0.05 (two tailed) using the GraphPad Prism 3.00 software.
# Female Swiss nude mice were 5 weeks old upon delivery (See General Methods, Section O). They were kept under pathogen-free conditions with food and water supplied ad libitum, and kept for about one week before implantation of the tumors. Fragments (˜2 mm) of LS174T tumors grown in nude mice were implanted subcutaneously in both flanks of the mice used in the study. Tumors were left to grow for 17 days. At that time, the mice weighed about 20.5-26.5 g.
# Mice were then selected and assigned to groups in order to have equally distributed tumor volumes in different groups (5-6 mice, 9-10 tumors/group). The dose levels of Compound II, DOX used in the study, were selected on the basis of a lethality study previously conducted on OF-1 normal mice. The dose of DOX was based on previous chemotherapy experiments performed in nude mice with the same dosing schedule.
# Treatments were administered by the i.p. route on days 0, 1, 2, 3 and 4, the mice receiving a constant volume (10 μl/g) of either saline or the different dosing solutions. DOX was used at 3.8 μmol/kg, Compound II, DOX was used at 25.9 μmol/kg and 34.5 μmol/kg. Clinical signs (recorded 0.5, 1, 2 and 4 hours after dosing and daily between dosing days) and body weights (recorded on each day of tumor measurement) were used to assess treatment toxicity, tumor growth was monitored on days 7, 12, 15, 19, 22, 26, 29, 33 and 36 by two-dimensional measurements using calipers and a precision of 0.5 mm.
# [4] = test system: MCF-7/6 human mammary carcinoma cells; test: In vitro accumulation by cultured MCF-7/6 tumor cells; type: cell-based; conditions: 0.02 mM, 37° C., after 24 hours
# Procedure: Compound I, DNR was incubated in vitro at 37° C. in the presence of MCF-7/6 human mammary carcinoma cells and the intracellular accumulation of the compound or its potential metabolites were analyzed by HPLC and fluorimetry, after extraction of the drugs from the cells.
# Compound I, DNR was dissolved in distilled water at 17.24 μmole/ml and then diluted to obtain 0.02 mM in DMEM-F12 culture medium supplemented with 10% fetal calf serum (glutamax-I). Four ml of medium was poured in 25 cm^2 flasks (ref 3014. FALCON), and the cells were incubated for 30 minutes, 1, 3, 6 and 24 hours at 37° C. Then the cells were washed three times with PBS, and the cells were scraped from the flasks, and sonicated for 30 seconds at 100 Watts in a ice bath. Aliquots of 500 μl from each sample were then extracted with 1.8 ml of a chloroform:methanol mixture (4:1 by volume) to which 0.1 ml of 0.2 M borate buffer at pH 9.2, containing DOX at […] as internal standard, were added. After stirring, the organic layer was dried and resuspended in 400 μl of distilled water, sonicated 5 minutes at 100 Watts in a ice-bath and filtered through a 0.22 μm filter (Waters-Millipore, MILLEX-GV) and then analyzed by HPLC.
# On a aliquot of 100 μl, the protein content of the cell homogenate was determined.
# [5] = DOX 3.8 μmol/kg, Compound II, DOX lower dosage 25.9 μmol/kg, i.p. days 0-4
# Procedure for B16-B16 murine melanoma: Male C57-B16 black mice were 5 weeks old upon delivery. The body weight of the animals was approximately 20 g at the beginning of the test (See General Methods, Section O).
# The animals were divided in eight groups (5 mice per group). Confluent murine melanoma B16-B16 cells (See General Methods, Section E.) were washed twice with PBS and EDTA (See General Methods, Section F.) twice and detached with trypsin (2 min incubation at 37° C.), that was thereafter neutralized by DMEM-F12 (containing 10% of calf serum). The cells were centrifuged for 5 min at 300 g. The pellet was resuspended twice in the DMEM-F12 without serum and centrifuged 5 min at 300 g.
# The number of cells per ml of DMEM-F12 was then estimated (Brucker chamber) and the dilution of 2.5×10^5 cells/ml prepared. Each animal received 200 μl of this suspension (5.0×10^4 cells) in its tail vein. The day of injection was considered day 0 of the study. […] Animals were weighed on days 0, 1, 3, 6, 8 and 14. Their behavior and eventual clinical signs were also noted. All animals were sacrificed on day 14 and autopsied.
# The lung lobes were fixed in a Bouin's solution (picric acid: formaldehyde, 40%: acetic acid, 15:5:1, v/v). Every lobe immersed in the fixing solution in a Petri flask was uniformly lighted against an opaque black background. Pictures of the front and back side of every lobe were taken with the help of a light microscope, scanned and digitized. The relative surface occupied by B116-B16 colonies was then estimated with the Scion Image Program.
# The individual mean values were analyzed with the Scheffe's F-test to evaluate the statistical significance of differences observed between the groups.
molecule,measurement,setting,value
N-Leu-Leu-DNR,intracellular level of metabolite DNR,"B16-B16 melanoma cells; B16-B16 cells, 3 hours",0.67±0.12 nmol/mg cell protein
same,intracellular level of metabolite L-Leu-DNR,"B16-B16 melanoma cells; B16-B16 cells, 3 hours",81.22±6.66 nmol/mg cell protein
same,intracellular level of the unchanged compound,"B16-B16 melanoma cells; B16-B16 cells, 3 hours of incubation",7.74±0.75 nmol/mg cell protein
same,intracellular level of metabolite L-Leu-DNR,"B16-B16 melanoma cells; B16-B16 cells, 24 hours",98.57±16.76 nmol/mg cell protein
same,intracellular level of the unchanged compound,"B16-B16 melanoma cells; B16-B16 cells, 24 hours",1.04±0.10 mmol/mg cell protein
same,intracellular level of metabolite DNR,"B16-B16 melanoma cells; B16-B16 cells, 24 hours (end of incubation)",1.60±0.77 nmol/mg cell protein
"Cc1cc(=O)oc2cc(NC(=O)[C@H](CCCCN)NC(=O)[C@H](CC(C)C)NC(=O)[C@@H](C)N)ccc12 [D-Ala-Leu-Lys-7-amido-4-methylcoumarin, reference compound] (H-[dA]-Leu-Lys-{AMC}; N-terminus assumed)",hydrolysis in medium conditioned by B16-B16 cells,[1],Negative results
same,rate of in vitro hydrolysis by human plasmin,human plasmin,20.40 nmol/min/unit
"COc1cccc2c1C(=O)c1c(O)c3c(c(O)c1C2=O)C[C@@](O)(C(=O)CO)C[C@@H]3O[C@H]1C[C@H](NC(=O)[C@H](CC(C)C)NC(=O)[C@H](CC(C)C)NC(=O)[C@H](CCCCN)NC(=O)[C@H](CC(C)C)NC(=O)[C@@H](C)N)[C@H](O)[C@H](C)O1 [Compound II, DOX, D-Ala-Leu-Lys-Leu-Leu-DOX] (H-[dA]LKLL-{Doxorubicin(3'-N)})",body weight gained from day 6 to day 14,B16-B16 murine melanoma; 34.5 μmol/kg,4.9%
same,"mean body weight, % of initial","B16-B16 murine melanoma; 34.5 μmol/kg, day 14",104.5%
same,clinical signs of toxicity,B16-B16 murine melanoma; 34.5 and 69.0 μmol/kg,No clinical signs of toxicity were observed
same,LD50 at 28 day,[2],34.5 µmol/kg
same,survival,"OF-1 mice; OF-1 mice, 17.24-60.34 μmol/kg i.p. days 0-4",All animals survived to day 7
same,clinical signs of toxicity,"OF-1 mice; OF-1 mice, i.p.","piloerection, tremor, motor disturbances, stupor and finally, paralysis of the hind legs"
same,loss of mean body weight compared to initial body weight (critical threshold attained),"OF-1 mice; doses 34.48 (after second week), 43.1 and 60.34 μmol/kg (after first week)",≥ 20%
same,LD50 fold higher than that of DOX,OF-1 mice; same conditions,8.4 fold
same,mice that died before the end of the study,"[3]; 34.5 μmol/kg i.p. days 0-4, deaths on days 18, 34 and 35",three
same,maximum loss of mean body weight,"[3]; 34.5 μmol/kg, day 26",14%
same,treatment-related mortality,[3]; [5],No treatment-related mortality
same,weight loss,[3]; [5],no significant weight loss
"COc1cccc2c1C(=O)c1c(O)c3c(c(O)c1C2=O)C[C@@](O)(C(C)=O)CC3OC1C[C@H](NC(=O)C(CC(C)C)NC(=O)C(CCCCN)NC(=O)C(CC(C)C)NC(=O)C(C)N)[C@H](C)[C@H](C)O1 (stereo partly drawn) [Compound I, DNR, D-Ala-Leu-Lys-Leu-DNR]",hydrolysis in medium conditioned by B16-B16 cells,[1],Negative results
same,rate of in vitro hydrolysis by human plasmin,human plasmin,approximately 2.75 nmol/min/unit
same,accumulation by cultured MCF-7/6 cells,[4],approximately 0.1 μg/mg of cell proteins
same,intracellular level of metabolite DNR,B16-B16 melanoma cells,0.015±0.002 mmol/mg cell protein
"COc1cccc2c1C(=O)c1c(O)c3c(c(O)c1C2=O)C[C@@](O)(C(C)=O)CC3OC1C[C@H](NC(=O)C(CC(C)C)NC(=O)C(CC(C)C)NC(=O)C(CCCCN)NC(=O)C(CC(C)C)NC(=O)C(C)N)[C@H](C)[C@H](C)O1 (stereo partly drawn) [Compound II, DNR, D-Ala-Leu-Lys-Leu-Leu-DNR] (H-[ξA][ξL][ξK][ξL][ξL]-X1)",hydrolysis in medium conditioned by B16-B16 cells,[1],Negative results
same,rate of in vitro hydrolysis by human plasmin,human plasmin,27.90 nmol/min/unit
same,"hydrolysis by plasmin, times more rapid than Compound I, DNR",human plasmin; same conditions,at least 10 times
